Data taken from the supplement of paper PMC9170038.

Test system: MS2 coat protein
Experiment: apparent KD of MS2 coat protein; designed switch direction (-1 OFF switch, 1 ON switch): 1; higher = weaker reporter binding
Procedure, shortened: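 Stalled E. coli RNA polymerase transcribed designed RNA switches on Illumina chips, which were then titrated with SNAP-549-labelled MS2 coat protein, doubling from 0.7 or 1.5 nM to 3 µM. Steps lasted from 0.8–1.5 h at the lowest concentration to 10–20 min at the highest. The apparent KD is each design's median over clusters of curve-fitted normalised fluorescence.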

[1] = Eterna round: R95, input ligand: FMN 200 uM
[2] = Eterna round: R95, input ligand: microRNA oligo, concentration not stated
[3] = Eterna round: R95, input ligand: none
[4] = input ligand: microRNA oligo, concentration not stated

## GGUUUAGUCAGGCACAAUUGCGCCUGAAAACAUGAGGAUCACCCAUGUUUGGGACAAGCUUUGCUCCUCGUCUUGCA [Enzati] (puzzle: Sensor for hsa-mir-208a)
[1]
  apparent KD of MS2 coat protein: 306 nM
[2]
  apparent KD of MS2 coat protein: 68.1 nM
[3]
  apparent KD of MS2 coat protein: 385 nM

## AAGAAACAUGAGGAUCACCCAUGUAGAAAUAUGGGAGGAUAUACGAGGACGAAAGUCAAAGUAGAAGGCCUAAGAA [Mat - Same State 1 - Meechl mod - D130] (Eterna round: R96, puzzle: Same State 1)
Input ligand: FMN 200 uM
  apparent KD of MS2 coat protein: 21.4 nM
[4]
  apparent KD of MS2 coat protein: 54.5 nM
Input ligand: none
  apparent KD of MS2 coat protein: 63.8 nM

## UCUUGGUUUUUGCUCGUUUUUUGUGUUGAACAUGAGGAUCACCCAUGUAUUGUACGGUCCAAUUUAAUAAUAGUCCG [JMF 65] (puzzle: Sensor for hsa-mir-208a)
[1]
  apparent KD of MS2 coat protein: 26.6 nM
[2]
  apparent KD of MS2 coat protein: 19.7 nM
[3]
  apparent KD of MS2 coat protein: 32.4 nM

## GGUGGCGAAAGCGACAUGAGGAUCACCCAUGUCAUCGGAGGGCAGGAUAUCCGGCGAAAGCCGAAGGAGAAGGGUCGAAAAGAA [ssng3v2 b] (Eterna round: R96, puzzle: Same State NG 3)
Input ligand: FMN 200 uM
  apparent KD of MS2 coat protein: 62.4 nM
[4]
  apparent KD of MS2 coat protein: 25.8 nM
Input ligand: none
  apparent KD of MS2 coat protein: 43.6 nM

## UCUUGGUUUUUGCUCGUUUUUUGUGUUGAACAUGAGGAUCACCCAUGUAUUGUACGGUCCAGUUUGAUAAUGGUCCG [JMF 34] (puzzle: Sensor for hsa-mir-208a)
[1]
  apparent KD of MS2 coat protein: 25.6 nM
[2]
  apparent KD of MS2 coat protein: 14.3 nM
[3]
  apparent KD of MS2 coat protein: 27.3 nM

## AAGUAGCGAGAGCUACACAAAAAGUUUGUACAUGAGGAUCACCCAUGUUGUACAAGCUUUUUGCUCGUCUUAAAAAA [Mat - Sensor - JL mod - D14] (Eterna round: R96, puzzle: Sensor for hsa-mir-208a)
Input ligand: FMN 200 uM
  apparent KD of MS2 coat protein: 77.4 nM
[4]
  apparent KD of MS2 coat protein: 11.6 nM
Input ligand: none
  apparent KD of MS2 coat protein: 84.1 nM

## UUAACAUGAGGAUCACCCAUGUAUGCGUAGCUUGCAUUUUGACAGGAUAUUGAAUAUCUAUAUAGCAAGAAGGGUCGUUAGUCU [JR_SSNG3_Sub008] (Eterna round: R96, puzzle: Same State NG 3)
Input ligand: FMN 200 uM
  apparent KD of MS2 coat protein: 91.8 nM
[4]
  apparent KD of MS2 coat protein: 53.3 nM
Input ligand: none
  apparent KD of MS2 coat protein: 94.9 nM

## GUGAAGAAUUAAGGAUAUCGAGUCAAGAUGUUAAACAUGAGGAUCACCCAUGUGGGUUGCGGUAUCGAGAAGGUAAAUUACAGG [salish99_SSNG2_r04_502] (Eterna round: R96, puzzle: Same State NG 2)
Input ligand: FMN 200 uM
  apparent KD of MS2 coat protein: 25.9 nM
[4]
  apparent KD of MS2 coat protein: 21.1 nM
Input ligand: none
  apparent KD of MS2 coat protein: 31.7 nM

## AGUCCAGCCUGAGCUGGACAAAAGCGUGUACAUGAGGAUCACCCAUGUUCAUGUACAAGCUUUUUGCUCGUCUUAAA [Zipper 52 - 6] (puzzle: Sensor for hsa-mir-208a)
[1]
  apparent KD of MS2 coat protein: 25.7 nM
[2]
  apparent KD of MS2 coat protein: 20 nM
[3]
  apparent KD of MS2 coat protein: 127 nM

## GCGUUUAACGUAGGAUAUCGAGCUACAUGAGGAUCACCCAUGUCUUUGUAAAGUUUUUUUAAUUCCGAGAAGGACGUAUUGCAU [JR_SSNG2_Sub073] (Eterna round: R96, puzzle: Same State NG 2)
Input ligand: FMN 200 uM
  apparent KD of MS2 coat protein: 27.1 nM
[4]
  apparent KD of MS2 coat protein: 27.2 nM
Input ligand: none
  apparent KD of MS2 coat protein: 35.9 nM

## AUAAAAGAAAGAAACACAUGAGGAUCACCCAUGUAACGACUACAGGAUAUGCUGCACAGUCCAAAGCAGAAGGGUGGUCAAAAC [Qulaesed] (Eterna round: R96, puzzle: Same State NG 3)
Input ligand: FMN 200 uM
  apparent KD of MS2 coat protein: 280 nM
[4]
  apparent KD of MS2 coat protein: 111 nM
Input ligand: none
  apparent KD of MS2 coat protein: 102 nM

## AGGGCCGCGGCACAGGAUAUGCACAGGUUCACAUGAGGAUCACCCAUGUGCUCUAGAUAGCUUGAGCAGAAGGGUGUCAUGGUAA [Beadi] (puzzle: Same State 2)
[1]
  apparent KD of MS2 coat protein: 16.3 nM
[2]
  apparent KD of MS2 coat protein: 18.2 nM
[3]
  apparent KD of MS2 coat protein: 27.9 nM

## GCUACCAUUGAAGCCAACAUGAGGAUCACCCAUGUAUGUUGGUAGGAUAUCGAUUGCUUUGCGAUCGAGAAGGGCUAAGGUAGC [JL SSNG3 1.28] (Eterna round: R96, puzzle: Same State NG 3)
Input ligand: FMN 200 uM
  apparent KD of MS2 coat protein: 52.6 nM
[4]
  apparent KD of MS2 coat protein: 48 nM
Input ligand: none
  apparent KD of MS2 coat protein: 45.1 nM

## CCGAUGAUAGGACAGGAUAUGACUGUCGUCACAUGAGGAUCACCCAUGUCCCGGCAAUGCCACCGUUAGAAGGGUCCCAUCUCGG [Uslainarin] (puzzle: Same State 2)
[2]
  apparent KD of MS2 coat protein: 15.6 nM

## AGUCCAGCCUGAGCUGGACAAAAGCAUGUACAUGAGGAUCACCCAUGUCAUGUACAAGCUUUUUGCUCGUAAUAAUA [Mat - hsa-mir-208a - Mod of JL - D31] (puzzle: Sensor for hsa-mir-208a)
[1]
  apparent KD of MS2 coat protein: 301 nM
[2]
  apparent KD of MS2 coat protein: 12.4 nM
[3]
  apparent KD of MS2 coat protein: 477 nM

## AGUCCAGCCAGAGCUGGACAAAAGCAUGUACAUGAGGAUCACCCAUGUUCAUGUACAAGCUUUUUGCUCGUCAAAAG [Mat - hsa-mir-208a - Mod of JL - 69] (puzzle: Sensor for hsa-mir-208a)
[1]
  apparent KD of MS2 coat protein: 304 nM
[2]
  apparent KD of MS2 coat protein: 17.7 nM
[3]
  apparent KD of MS2 coat protein: 233 nM

## CUGAGCGAUCAAGGAUAUCACGUCGAUUAGACGUGAGAAGGUGAUAAUUACAUGAGGAUCACCCAUGUAUAACAUGAAGCUCAG [SSNG1/9-A2] (Eterna round: R96, puzzle: Same State NG 1)
Input ligand: FMN 200 uM
  apparent KD of MS2 coat protein: 16 nM
[4]
  apparent KD of MS2 coat protein: 17.3 nM
Input ligand: none
  apparent KD of MS2 coat protein: 19.8 nM

## AAAAUAAAUACAGGAUAUAGCCGCCUAAAGCGGCUAGAAGGGUAGAUCGAAAUACAUGAGGAUCACCCAUGUGCACGUAAGUGC [Eresesgeti] (Eterna round: R96, puzzle: Same State NG 1)
Input ligand: FMN 200 uM
  apparent KD of MS2 coat protein: 775 nM
[4]
  apparent KD of MS2 coat protein: 527 nM
Input ligand: none
  apparent KD of MS2 coat protein: 1350 nM

## GGUGCAAUUAACGCCUACAUGAGGAUCACCCAUGUAUGUAGGCAGGAUAUCGUUUGCAAAGCAAACGAGAAGGGCUGUAGUACC [Mat - Same State NG 3 - JL Mod - D40] (Eterna round: R96, puzzle: Same State NG 3)
Input ligand: FMN 200 uM
  apparent KD of MS2 coat protein: 51.1 nM
[4]
  apparent KD of MS2 coat protein: 109 nM
Input ligand: none
  apparent KD of MS2 coat protein: 131 nM

## GAGCCAGUCCGAGGAUAUUCAUAUUAACACAUGAGGAUCACCCAUGUGGGCUCAGAAGAGCCCUGGGAGAAGGCGGACUGGCUC [SS-NG2-LRO16] (Eterna round: R96, puzzle: Same State NG 2)
Input ligand: FMN 200 uM
  apparent KD of MS2 coat protein: 16.5 nM
[4]
  apparent KD of MS2 coat protein: 232 nM
Input ligand: none
  apparent KD of MS2 coat protein: 297 nM

## AUUAUACAUGAGGAUCACCCAUGUAAUUAAUCUAGUAAGAUCUAGGAUAUCAGCUCGUUUAGAGCUGAGAAGGAGAUCACAUGU [SSNG3/20-D3] (Eterna round: R96, puzzle: Same State NG 3)
[4]
  apparent KD of MS2 coat protein: 38 nM
